B1: A101 scFv (scFv, V domains shown)
VH: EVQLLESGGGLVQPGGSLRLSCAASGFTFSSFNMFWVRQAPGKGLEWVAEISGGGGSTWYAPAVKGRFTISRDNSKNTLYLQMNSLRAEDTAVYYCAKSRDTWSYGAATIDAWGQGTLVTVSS
VL: ELTQDPAVSVALGQTVRITCSGSSGSYGWYQQKPGQAPVLVIYDNTNRPSGIPDRFSGSSSGNTASLTITGAQAEDEADYYCGGYDGSTDVFGGGTKLTVL
B2: A113 scFv (scFv, V domains shown)
VH: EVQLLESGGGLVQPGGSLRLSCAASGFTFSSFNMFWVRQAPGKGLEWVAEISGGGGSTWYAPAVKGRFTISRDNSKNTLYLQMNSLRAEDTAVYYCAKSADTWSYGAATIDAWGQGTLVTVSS
VL: ELTQDPAVSVALGQTVRITCSGSSGSYGWYQQKPGQAPVLVIYDNTNRPSGIPDRFSGSSSGNTASLTITGAQAEDEADYYCGGYRGSTDVFGGGTKLTVL
B3: A109 scFv (scFv, V domains shown)
VH: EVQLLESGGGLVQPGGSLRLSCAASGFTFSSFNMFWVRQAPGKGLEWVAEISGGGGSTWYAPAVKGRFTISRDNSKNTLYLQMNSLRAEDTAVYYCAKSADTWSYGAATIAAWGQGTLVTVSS
VL: ELTQDPAVSVALGQTVRITCSGSSGSYGWYQQKPGQAPVLVIYDNTNRPSGIPDRFSGSSSGNTASLTITGAQAEDEADYYCGGYDGSTDVFGGGTKLTVL
B4: A105 scFv (scFv, V domains shown)
VH: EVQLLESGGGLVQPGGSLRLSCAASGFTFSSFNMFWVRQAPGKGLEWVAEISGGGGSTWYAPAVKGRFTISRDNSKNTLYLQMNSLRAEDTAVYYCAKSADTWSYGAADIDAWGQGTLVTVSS
VL: ELTQDPAVSVALGQTVRITCSGSSGSYGWYQQKPGQAPVLVIYDNTNRPSGIPDRFSGSSSGNTASLTITGAQAEDEADYYCGGYDGSTDVFGGGTKLTVL
B5: A107 scFv (scFv, V domains shown)
VH: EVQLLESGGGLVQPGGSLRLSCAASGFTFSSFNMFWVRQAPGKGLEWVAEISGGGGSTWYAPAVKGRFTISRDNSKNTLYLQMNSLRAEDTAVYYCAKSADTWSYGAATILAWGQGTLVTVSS
VL: ELTQDPAVSVALGQTVRITCSGSSGSYGWYQQKPGQAPVLVIYDNTNRPSGIPDRFSGSSSGNTASLTITGAQAEDEADYYCGGYDGSTDVFGGGTKLTVL
B6: A110 scFv (scFv, V domains shown)
VH: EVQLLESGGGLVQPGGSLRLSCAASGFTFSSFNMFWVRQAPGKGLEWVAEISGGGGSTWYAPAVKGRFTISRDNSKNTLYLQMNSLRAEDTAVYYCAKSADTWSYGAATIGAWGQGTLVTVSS
VL: ELTQDPAVSVALGQTVRITCSGSSGSYGWYQQKPGQAPVLVIYDNTNRPSGIPDRFSGSSSGNTASLTITGAQAEDEADYYCGGYDGSTDVFGGGTKLTVL
B7: A106 scFv (scFv, V domains shown)
VH: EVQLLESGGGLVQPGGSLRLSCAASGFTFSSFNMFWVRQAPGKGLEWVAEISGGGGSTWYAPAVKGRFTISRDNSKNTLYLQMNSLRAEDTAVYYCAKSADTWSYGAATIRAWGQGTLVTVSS
VL: ELTQDPAVSVALGQTVRITCSGSSGSYGWYQQKPGQAPVLVIYDNTNRPSGIPDRFSGSSSGNTASLTITGAQAEDEADYYCGGYDGSTDVFGGGTKLTVL
B8: A102 scFv (scFv, V domains shown)
VH: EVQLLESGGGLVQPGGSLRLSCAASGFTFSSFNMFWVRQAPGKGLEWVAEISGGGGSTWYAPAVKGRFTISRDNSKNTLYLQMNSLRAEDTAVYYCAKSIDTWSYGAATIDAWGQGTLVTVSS
VL: ELTQDPAVSVALGQTVRITCSGSSGSYGWYQQKPGQAPVLVIYDNTNRPSGIPDRFSGSSSGNTASLTITGAQAEDEADYYCGGYDGSTDVFGGGTKLTVL
B9: A108 scFv (scFv, V domains shown)
VH: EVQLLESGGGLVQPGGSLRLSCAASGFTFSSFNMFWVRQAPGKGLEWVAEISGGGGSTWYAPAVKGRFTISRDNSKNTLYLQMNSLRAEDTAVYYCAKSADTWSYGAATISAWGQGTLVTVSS
VL: ELTQDPAVSVALGQTVRITCSGSSGSYGWYQQKPGQAPVLVIYDNTNRPSGIPDRFSGSSSGNTASLTITGAQAEDEADYYCGGYDGSTDVFGGGTKLTVL
B10: A112 scFv (scFv, V domains shown)
VH: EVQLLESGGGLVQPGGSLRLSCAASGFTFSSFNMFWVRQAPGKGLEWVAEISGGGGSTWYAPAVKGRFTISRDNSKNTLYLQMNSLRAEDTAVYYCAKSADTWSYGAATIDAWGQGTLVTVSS
VL: ELTQDPAVSVALGQTVRITCSGRSGSYGWYQQKPGQAPVLVIYDNTNRPSGIPDRFSGSSSGNTASLTITGAQAEDEADYYCGGYDGSTDVFGGGTKLTVL
B11: A111 scFv (scFv, V domains shown)
VH: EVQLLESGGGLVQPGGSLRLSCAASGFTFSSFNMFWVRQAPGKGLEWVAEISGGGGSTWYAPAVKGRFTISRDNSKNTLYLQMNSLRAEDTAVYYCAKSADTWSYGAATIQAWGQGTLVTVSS
VL: ELTQDPAVSVALGQTVRITCSGSSGSYGWYQQKPGQAPVLVIYDNTNRPSGIPDRFSGSSSGNTASLTITGAQAEDEADYYCGGYDGSTDVFGGGTKLTVL
B12: A114 scFv (scFv, V domains shown)
VH: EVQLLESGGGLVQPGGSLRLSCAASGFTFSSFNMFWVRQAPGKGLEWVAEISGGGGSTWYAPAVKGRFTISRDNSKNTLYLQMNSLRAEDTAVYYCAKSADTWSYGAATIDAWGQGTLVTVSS
VL: ELTQDPAVSVALGQTVRITCSGSSGSYGWYQQKPGQAPVLVIYDNTNRPSGIPDRFSGSSSGNTASLTITGAQAEDEADYYCGGYWGSTDVFGGGTKLTVL
B13: A104 scFv (scFv, V domains shown)
VH: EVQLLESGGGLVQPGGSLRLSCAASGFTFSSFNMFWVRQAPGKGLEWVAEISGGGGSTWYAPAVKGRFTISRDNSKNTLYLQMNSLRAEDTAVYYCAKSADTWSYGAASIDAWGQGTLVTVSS
VL: ELTQDPAVSVALGQTVRITCSGSSGSYGWYQQKPGQAPVLVIYDNTNRPSGIPDRFSGSSSGNTASLTITGAQAEDEADYYCGGYDGSTDVFGGGTKLTVL
B14: A103 scFv (scFv, V domains shown)
VH: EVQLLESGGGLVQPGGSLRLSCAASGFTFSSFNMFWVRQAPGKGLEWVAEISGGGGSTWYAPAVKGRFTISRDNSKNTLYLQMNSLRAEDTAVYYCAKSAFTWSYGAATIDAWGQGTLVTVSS
VL: ELTQDPAVSVALGQTVRITCSGSSGSYGWYQQKPGQAPVLVIYDNTNRPSGIPDRFSGSSSGNTASLTITGAQAEDEADYYCGGYDGSTDVFGGGTKLTVL

The assay deals with T1, mouse CNTN4 overexpressed on 293F cells (mouse, UniProt Q69Z26 19-1000).
T1 construct: whole, on cells; Overexpressed on 293F cells; the construct is not described; also called Mouse CNTN4 cell; mouse antigen-overexpressing 293F cells
T1 sequence (looked up): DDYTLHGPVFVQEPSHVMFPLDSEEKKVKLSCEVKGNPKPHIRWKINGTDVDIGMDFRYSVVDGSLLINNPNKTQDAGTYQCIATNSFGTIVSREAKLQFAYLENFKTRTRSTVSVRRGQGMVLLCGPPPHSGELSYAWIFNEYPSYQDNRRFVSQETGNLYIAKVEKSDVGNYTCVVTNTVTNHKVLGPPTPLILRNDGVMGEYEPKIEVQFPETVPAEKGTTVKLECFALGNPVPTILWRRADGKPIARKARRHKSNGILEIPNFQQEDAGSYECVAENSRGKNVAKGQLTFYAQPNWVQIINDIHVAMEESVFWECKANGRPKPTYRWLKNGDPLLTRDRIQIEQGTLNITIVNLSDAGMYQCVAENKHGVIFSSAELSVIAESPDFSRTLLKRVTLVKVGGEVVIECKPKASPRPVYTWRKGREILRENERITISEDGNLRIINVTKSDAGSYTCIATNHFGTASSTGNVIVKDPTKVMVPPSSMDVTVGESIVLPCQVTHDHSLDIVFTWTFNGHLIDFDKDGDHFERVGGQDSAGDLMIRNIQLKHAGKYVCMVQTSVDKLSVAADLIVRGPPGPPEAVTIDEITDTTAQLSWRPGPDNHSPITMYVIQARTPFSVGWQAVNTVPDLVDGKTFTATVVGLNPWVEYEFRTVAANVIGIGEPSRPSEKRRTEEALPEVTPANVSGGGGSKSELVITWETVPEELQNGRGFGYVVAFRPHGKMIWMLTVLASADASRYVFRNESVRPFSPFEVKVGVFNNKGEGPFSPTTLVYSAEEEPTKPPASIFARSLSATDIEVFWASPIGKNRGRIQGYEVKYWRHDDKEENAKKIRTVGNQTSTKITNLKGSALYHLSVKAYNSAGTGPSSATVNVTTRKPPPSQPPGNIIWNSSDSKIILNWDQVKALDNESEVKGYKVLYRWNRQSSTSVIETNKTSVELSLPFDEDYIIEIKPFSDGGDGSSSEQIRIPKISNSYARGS
Put plainly: FACS, scFv periplasm on mouse CNTN4-overexpressing 293F cells, PE anti-His detection.
As to B1, the EC50 is 33.2 nM and the “Top MFI” value stood at 2070 MFI.

For the molecule B2, a half-maximal response (EC50) required 45.8 nM and the “Top MFI” value worked out at 1100 MFI.

In the case of B3, the midpoint of the response, the EC50, lay at 8.3 nM and the “Top MFI” value is 2830 MFI.

Regarding B4, the EC50 turned out to be 13.9 nM and the “Top MFI” value stood at 2460 MFI.

Take B5: it took 13.6 nM to reach a half-maximal effect (EC50) and the “Top MFI” value amounted to 4110 MFI.

B6: the response was half-maximal at 20.1 nM (EC50) and the “Top MFI” value was found to be 2150 MFI.

As for B7, it took 72.6 nM to reach a half-maximal effect (EC50) and the “Top MFI” value was 2740 MFI.

Take B8: the EC50 worked out at 17.3 nM and the “Top MFI” value is 2110 MFI.

For B9, the EC50 came out at 20.2 nM and the “Top MFI” value was determined as 2840 MFI.

As for B10, the response was half-maximal at 32.5 nM (EC50) and the “Top MFI” value came to 1860 MFI.

Regarding B11, the EC50 stood at 10.4 nM and the “Top MFI” value stood at 4190 MFI.

Consider B12, for which the EC50 worked out at 7.6 nM and the “Top MFI” value is 2260 MFI.

Consider B13, for which the EC50 amounted to 29.4 nM and the “Top MFI” value was 2050 MFI.

For B14, the midpoint of the response, the EC50, lay at 12 nM and the “Top MFI” value was 2740 MFI.
